The nature of series [1]: Thermostability (Tm, Tonset, Tagg) by Nanotemper DSF. Details: key to Tm2 / Tagg / Tm1 / Tm / Tm3 / Tonset / Tonset ø (mean) / Tagg ø (mean): temperatures in °C. It is filed as physicochemical. Conditions: for Tm: single melting point; for Tm1: first melting point; for Tm2: second melting point. In short, it runs like this: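 Isolated VHH clones were heated from 20 °C to 95 °C at 1 °C/min using DSF. Tm, Tonset and Tagg were derived from the thermal curves. Where several melting transitions occurred, each was reported in order (Tm1, Tm2, etc.).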

A further series concerns the target T1, Fel D1 (Felis catus, UniProt P30438).
T1 construct: made in house; host or cells: chemically synthesized peptides
Description: ELISA binding assay of anti-Fel d1 VHH clones on Fel D1 epitopes. On the set-up: species or system cat. The procedure:
2 microgram per milliliter (μg/mL) target antigen is coated in a 96-well plate and ELISA assay is performed after incubation with candidate VHHs. The binding EC50 of each clone is calculated using Prism GraphPad. The positive control antibody is involved as an internal control.
Four distinct epitopes of Fel D1 were selected to be used for further identification. Peptides were synthesized for the four epitopes for VHH identification.
Isolated VHH clones were further validated by performing an ELISA assay as described in Example 1. Binding results are shown in FIG. 15B-15D for the epitope of SEQ ID NO: 61. Binding results are shown in FIG. 16 for the epitope of SEQ ID NO: 59. Binding results are shown in FIG. 17A-17E for the epitope of SEQ ID NO: 60. Binding results are shown in FIG. 18 for the epitope of SEQ ID NO: 58.

The mark [2] stands for this setting: Average of two replicates, anti-Fel d1 VHH.
The mark [3] stands for this setting: Average of two replicates, anti-Fel d1 VHH, in °C (unit assumed).
The mark [4] stands for this setting: Replicate 1, in °C (unit assumed).
[5] abbreviates: Replicate 2, in °C (unit assumed).
Where [6] appears, read: Epitope Recognized AKMTEEDKENALS (SEQ ID NO: 60).
Setting [7] is: anti-Fel d1 VHH, in °C (unit assumed).

A word on the EC50: it is the midpoint of the concentration-response curve.

B1: SDAB22110-4-3-H02: anti-Fel d1 VHH clone, SEQ ID NO: 57 (protein)
VHH: QLQLVESGGGLVQPGGSLRLSCEASGFTFKYYTMSWYRQAPGKERELVATITNGDRTNYADSVKGRFTISRDNAKNTLYLQMNSLKPYDTAVYYCNRHLPLLQIWGQGTQVTVSS
With B1, in series [1] (setting [2]), the “Tagg ø (mean)” value is 42.29. In addition, the “Tonset ø (mean)” value in series [1] (setting [2]) amounted to 47.54. Besides, the “Tm ø (mean), first melting point (Tm1)” value in series [1] (setting [3]) is 58.58. Moreover, the results for the Tagg in series [1] (Replicate 1), in series [1] (Replicate 2) and in series [1] (anti-Fel d1 VHH) were 42.24, 42.35 and 42.30, respectively. Further, the Tonset stood at 47.33 in series [1] (Replicate 1) and 47.76 in series [1] (Replicate 2). The “Tm, first melting point (Tm1)” value in series [1] (setting [4]) came out at 58.60; in series [1] (setting [5]), 58.57. The Tm in series [1] (anti-Fel d1 VHH) is given as 47.50. Moreover, the EC50 with Fel D1 (setting [6]) worked out at 12.940 µg/mL.

B2: SDAB22110-4-3-E05: anti-Fel d1 VHH clone, SEQ ID NO: 55 (protein)
VHH: QVQLVESGGGLVQPGGSLRLSCVGSGFTFSQYAMRWYRQVPGKARELVAAISRSGDFMYYADSVKGRFTISRDNVKSAVILQMNSLKPEDTAVYYCYGQATISDTLWGQGTQVTVSS
B2: in series [1] (setting [2]), the “Tagg ø (mean)” value is 40.93 and the “Tonset ø (mean)” value is recorded as 35.67. In addition, in series [1] (setting [3]), the “Tm ø (mean), first melting point (Tm1)” value came to 46.83. In series [1] (Replicate 1), this molecule yielded a Tagg of 40.93 and a Tonset of 35.61. Also, the “Tm, first melting point (Tm1)” value in series [1] (setting [4]) is reported as 47.02. In series [1] (Replicate 2), this molecule came in with a Tagg of 40.93 and a Tonset of 35.73. The “Tm, first melting point (Tm1)” value in series [1] (setting [5]) came to 46.64. Also, in series [1] (anti-Fel d1 VHH), the Tagg came out at 31.74 and the “aggregates” value was “Possible”. In series [1] (setting [7]), the Tm1 was found to be 37.85 and the Tm2 stood at 47.65. For the same molecule, the Tm3 in series [1] (anti-Fel d1 VHH, third melting point, in °C (unit assumed)) worked out at 62.39. This molecule also came in with an EC50 in the series with Fel D1 (setting [6]) of 1.719 µg/mL.

B3: SDAB22110-3-2-H08: anti-Fel d1 VHH clone, SEQ ID NO: 53 (protein)
VHH: QVQLVESGGGLVQPGGSLRLSCAASGFTFSRKGMSWYRQVPGKEREWVARIYSTGEKTDYADSVKGRFTISRDNAKNMVYLDMNSLKPEDTAVYYCKAWGYEYWNQGTQVTVSS
As to B3, the “Tagg ø (mean)” value in series [1] (setting [2]) is recorded as 42.30. For the same molecule, the “Tonset ø (mean)” value in series [1] (setting [2]) was determined as 37.18. Further, in series [1] (setting [3]), the “Tm ø (mean), first melting point (Tm1)” value came to 47.50. The Tagg in series [1] (Replicate 1) came to 42.41; in series [1] (Replicate 2), 42.19; in series [1] (anti-Fel d1 VHH), 35.68. The Tonset in series [1] (Replicate 1) was found to be 37.03; in series [1] (Replicate 2) it was 37.34. For the same molecule, the “Tm, first melting point (Tm1)” value in series [1] (setting [4]) was determined as 47.46; in series [1] (setting [5]), 47.53. For the same molecule, the Tm in series [1] (setting [7]) is reported as 42.43. In addition, in the series with Fel D1 (setting [6]), the EC50 stood at 5.024 µg/mL.

B4: SDAB22110-4-3-B02: anti-Fel d1 VHH clone, SEQ ID NO: 54 (protein)
VHH: QVQLVESGGGLVQPGGSLRLSCVASGFTFSFYTMEWYRQAAGKQRELVAGLTASGTTHYADSAKGRFTISRDNAWNTVFLQMNGLKPEDTAVYYCNAYSGYRDYWGQGTQVTVSL
As for B4, the “Tagg ø (mean)” value in series [1] (setting [2]) worked out at 35.68. In addition, in series [1] (setting [2]), the “Tonset ø (mean)” value stood at 33.78. Further, the “Tm ø (mean), first melting point (Tm1)” value in series [1] (setting [3]) is given as 42.43. Besides, the Tagg in series [1] (Replicate 1) came to 35.55; in series [1] (Replicate 2), 35.82; in series [1] (anti-Fel d1 VHH), 40.93. The Tonset in series [1] (Replicate 1) and in series [1] (Replicate 2) was 33.78 each time. Moreover, the “Tm, first melting point (Tm1)” value in series [1] (setting [4]) was 42.52; in series [1] (setting [5]), 42.34. In addition, in series [1] (setting [7]), the Tm was 46.83. Besides, the EC50 with Fel D1 (setting [6]) came to 12.200 µg/mL.

B5: SDAB22110-1-1-E4: anti-Fel d1 VHH clone, SEQ ID NO: 51 (protein)
VHH: QLQLVESGGGLVQPGGSLRLSCTASGFTFSTAGTSWYRQSPGKARKLVAELSRIGGIANYADSVKGRFTISRDNTRNTVYLQMNSLKPEDTAVYYCKVVTNRNYGFTYWGQGTQVTVSS
In the case of B5, in series [1] (setting [2]), the “Tagg ø (mean)” value is 39.61 and the “Tonset ø (mean)” value is reported as 40.64. The “Tm ø (mean), first melting point (Tm1)” value in series [1] (setting [3]) was found to be 50.69. Also, in series [1] (Replicate 1), the Tagg was 39.62 and the Tonset is reported as 40.60. Moreover, the “Tm, first melting point (Tm1)” value in series [1] (setting [4]) was 50.73. For the same molecule, in series [1] (Replicate 2), the Tagg amounted to 39.61 and the Tonset amounted to 40.64. The “Tm, first melting point (Tm1)” value in series [1] (setting [5]) was found to be 50.66. For the same molecule, in series [1] (anti-Fel d1 VHH), the Tagg was 42.78 and the “aggregates” value is recorded as “Possible”. In addition, in series [1] (setting [7]), the Tm1 is given as 41.13 and the Tm2 is on record as 52.88. In the series with Fel D1 (Epitope Recognized ENARILKNCVDAKM (SEQ ID NO: 61)), this molecule displayed an EC50 of 3.305 µg/mL.

B6: SDAB22110-4-3-G08: anti-Fel d1 VHH clone, SEQ ID NO: 56 (protein)
VHH: DVQLVESGGGLVQPGGSLRLSCAASGFTFSLYYMSWYRQVPGKERELVATITSGTHATTYADSVKGRFTISRDNAKNTVSLQMNSLKREDTGVYYCKRTNAGQDPWGQGTQVTVSS
In the case of B6, in series [1] (setting [2]), the “Tagg ø (mean)” value is 31.74; the “Tm ø (mean), first melting point (Tm1)” value is given as 37.85,; the “Tonset ø (mean)” value stood at 27.92. Moreover, in series [1] (setting [3]), the “Tm ø (mean), second melting point (Tm2)” value is given as 47.65 and the “Tm ø (mean), third melting point (Tm3)” value came out at 62.92. Also, in series [1] (Replicate 1), the Tagg was determined as 31.71; the “Tm, first melting point (Tm1)” value is recorded as 37.77,; the Tonset worked out at 27.93. In addition, in series [1] (setting [4]), the “Tm, second melting point (Tm2)” value was found to be 47.76 and the “Tm, third melting point (Tm3)” value is reported as 61.85. Also, in series [1] (Replicate 2), the Tagg was found to be 31.77; the “Tm, first melting point (Tm1)” value is 37.92,; the Tonset turned out to be 27.92. In addition, in series [1] (setting [5]), the “Tm, second melting point (Tm2)” value was 47.53 and the “Tm, third melting point (Tm3)” value was 62.92. Further, the Tagg in series [1] (anti-Fel d1 VHH) came to 42.29. Also, the Tm in series [1] (setting [7]) amounted to 58.58. In the series with Fel D1 (setting [6]), this molecule showed an EC50 of 2.215 µg/mL.
